The target of this test is HLA-A*02:01 (Homo sapiens, UniProt P04439, D140Y/D185E/D98H/E176V/E277Q/G131W/G231S/I119V/I121R/I166T/I218V/L300P/L318F/N151K/N90K/P208A/P217A/Q86G/Q94H/R138H/R169H/T345S). Briefly: MHC binding assay (UV-ligand exchange, ELISA of exchange yield). The note with it: binding to HLA-A*02:01, UV-ligand exchange. In short, it runs like this: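 Peptide–MHC complexes made by UV-ligand exchange, where a UV-cleavable peptide is replaced by the test peptide. Exchange yield measured by ELISA: complexes diluted 100-fold on streptavidin-coated plates, stabilized complexes detected with HRP anti-β2m, TMB read at 450 nm.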
On the technique in general: In an ELISA, binding on a coated surface is turned into a signal by an enzyme label.
Consider “493 (GLLGEKTQDLIGV; listed as Homo sapiens) [compound 493]”, for which the “Peptide exchange (MHC class I binding score, peptide exchange yield)” value (from here on “Peptide exchange”) was ““+++” (≥50 = +++)”.

Consider “494 (ALQPEPIKV; listed as Homo sapiens) [compound 494]”, for which the “Peptide exchange” value is given as ““++” (≥20% = ++)”.

As for “495 (FIFSEKPVFV; listed as Homo sapiens) [compound 495]”, the “Peptide exchange” value is ““+++” (≥50 = +++)”.

As to “496 (FLVEKQPPQV; listed as Homo sapiens) [compound 496]”, the “Peptide exchange” value was ““+++” (≥50 = +++)”.

For the substance “497 (GLLEKLTAI; listed as Homo sapiens) [compound 497]”, the “Peptide exchange” value was ““+++” (≥50 = +++)”.

Consider “498 (KLWTGGLDNTV; listed as Homo sapiens) [compound 498]”, for which the “Peptide exchange” value is ““+++” (≥50 = +++)”.

Consider “499 (KIFDIDEAEEGV; listed as Homo sapiens) [compound 499]”, for which the “Peptide exchange” value was ““++” (≥20% = ++)”.

As for “500 (SLMEDQVLQL; listed as Homo sapiens) [compound 500]”, the “Peptide exchange” value is reported as ““+++” (≥50 = +++)”.

Regarding “501 (LLDPNVKSIFV; listed as Homo sapiens) [compound 501]”, the “Peptide exchange” value is ““+++” (≥50 = +++)”.

“502 (RLLAQVPGL; listed as Homo sapiens) [compound 502]”: the “Peptide exchange” value is ““+++” (≥50 = +++)”.

As to “503 (SLNHFTHSV; listed as Homo sapiens) [compound 503]”, the “Peptide exchange” value is ““+++” (≥50 = +++)”.

For the substance “504 (GLSDGNPSL; listed as Homo sapiens) [compound 504]”, the “Peptide exchange” value was ““++” (≥20% = ++)”.

Turning to “505 (SLAPGDVVRQV; listed as Homo sapiens) [compound 505]”, the “Peptide exchange” value is reported as ““++” (≥20% = ++)”.

On to “506 (KLLGKVETA; listed as Homo sapiens) [compound 506]”, for which the “Peptide exchange” value is reported as ““+++” (≥50 = +++)”.

Consider “507 (KLIDDQDISISL; listed as Homo sapiens) [compound 507]”, for which the “Peptide exchange” value is ““+++” (≥50 = +++)”.

As to “508 (ILAQEQLVVGV; listed as Homo sapiens) [compound 508]”, the “Peptide exchange” value was ““+++” (≥50 = +++)”.

On to “509 (FLFDTKPLIV; listed as Homo sapiens) [compound 509]”, for which the “Peptide exchange” value is ““+++” (≥50 = +++)”.

As for “510 (KLYSVVSQL; listed as Homo sapiens) [compound 510]”, the “Peptide exchange” value was ““++” (≥20% = ++)”.

With “511 (FLDPYCSASV; listed as Homo sapiens) [compound 511]”, the “Peptide exchange” value is ““++” (≥20% = ++)”.

As to “512 (SLSEIVPCL; listed as Homo sapiens) [compound 512]”, the “Peptide exchange” value is recorded as ““+++” (≥50 = +++)”.

As to “513 (SLWPSPEQL; listed as Homo sapiens) [compound 513]”, the “Peptide exchange” value is recorded as ““++” (≥20% = ++)”.

In the case of “514 (ILVDWLVQV; listed as Homo sapiens) [compound 514]”, the “Peptide exchange” value is ““+++” (≥50 = +++)”.

In the case of “515 (LLQELVLFL; listed as Homo sapiens) [compound 515]”, the “Peptide exchange” value is ““+++” (≥50 = +++)”.

With “516 (AVGPASILKEV; listed as Homo sapiens) [compound 516]”, the “Peptide exchange” value is ““++” (≥20% = ++)”.

Take “517 (LLMPIPEGLTL; listed as Homo sapiens) [compound 517]”: the “Peptide exchange” value was ““+++” (≥50 = +++)”.

“518 (KLNAEVACV; listed as Homo sapiens) [compound 518]”: the “Peptide exchange” value is ““+++” (≥50 = +++)”.

Take “519 (GLLHLTLLL; listed as Homo sapiens) [compound 519]”: the “Peptide exchange” value is listed as ““+++” (≥50 = +++)”.

In the case of “520 (LAVHPSGVAL; listed as Homo sapiens) [compound 520]”, the “Peptide exchange” value was ““+” (≥10% = +)”.

Turning to “521 (MLLTKLPTI; listed as Homo sapiens) [compound 521]”, the “Peptide exchange” value was ““+++” (≥50 = +++)”.

Turning to “522 (TLWYRSPEV; listed as Homo sapiens) [compound 522]”, the “Peptide exchange” value was ““++” (≥20% = ++)”.

For “523 (YQIPRTFTL; listed as Homo sapiens) [compound 523]”, the “Peptide exchange” value is recorded as ““++” (≥20% = ++)”.

For the substance “524 (ALIENLTHQI; listed as Homo sapiens) [compound 524]”, the “Peptide exchange” value is ““++” (≥20% = ++)”.

Regarding “525 (VLLEAGEGLVTI; listed as Homo sapiens) [compound 525]”, the “Peptide exchange” value is ““+++” (≥50 = +++)”.

Turning to “526 (RLAEVGQYEQV; listed as Homo sapiens) [compound 526]”, the “Peptide exchange” value is recorded as ““++” (≥20% = ++)”.

Regarding “527 (FLLEPGNLEV; listed as Homo sapiens) [compound 527]”, the “Peptide exchange” value is listed as ““++++” (≥75% = ++++)”.

“528 (SVAEGRALMSV; listed as Homo sapiens) [compound 528]”: the “Peptide exchange” value is recorded as ““+++” (≥50 = +++)”.

As to “529 (LLADELITV; listed as Homo sapiens) [compound 529]”, the “Peptide exchange” value is given as ““+++” (≥50 = +++)”.

In the case of “530 (VMYADIGGMDI; listed as Homo sapiens) [compound 530]”, the “Peptide exchange” value is ““+++” (≥50 = +++)”.

As to “531 (YTLPIASSIRL; listed as Homo sapiens) [compound 531]”, the “Peptide exchange” value is reported as ““+++” (≥50 = +++)”.

Regarding “537 (TLAPGEVLRSV; listed as Homo sapiens) [compound 537]”, the “Peptide exchange” value is ““+++” (≥50 = +++)”.

Consider “538 (LLLAHIIAL; listed as Homo sapiens) [compound 538]”, for which the “Peptide exchange” value is on record as ““++” (≥20% = ++)”.

“539 (ALFDAQAQV; listed as Homo sapiens) [compound 539]”: the “Peptide exchange” value was ““+++” (≥50 = +++)”.

Take “541 (SMLEPVPEL; listed as Homo sapiens) [compound 541]”: the “Peptide exchange” value is recorded as ““+++” (≥50 = +++)”.

On to “542 (RVWDISTVSSV; listed as Homo sapiens) [compound 542]”, for which the “Peptide exchange” value is ““+++” (≥50 = +++)”.

Take “543 (GLLPTPITQQASL; listed as Homo sapiens) [compound 543]”: the “Peptide exchange” value is listed as ““+++” (≥50 = +++)”.

Turning to “544 (LLWDVPAPSL; listed as Homo sapiens) [compound 544]”, the “Peptide exchange” value is listed as ““+++” (≥50 = +++)”.

For “545 (LLADLLHNV; listed as Homo sapiens) [compound 545]”, the “Peptide exchange” value was ““+++” (≥50 = +++)”.

For “546 (VMIAGKVAVV; listed as Homo sapiens) [compound 546]”, the “Peptide exchange” value is ““+++” (≥50 = +++)”.

Consider “547 (TLDITPHTV; listed as Homo sapiens) [compound 547]”, for which the “Peptide exchange” value is reported as ““+++” (≥50 = +++)”.

Take “548 (ALWENPESGEL; listed as Homo sapiens) [compound 548]”: the “Peptide exchange” value is ““++” (≥20% = ++)”.

Take “549 (AMLENASDIKL; listed as Homo sapiens) [compound 549]”: the “Peptide exchange” value is recorded as ““+++” (≥50 = +++)”.

In the case of “550 (FLYDEIEAEVNL; listed as Homo sapiens) [compound 550]”, the “Peptide exchange” value is ““+++” (≥50 = +++)”.

Regarding “551 (KLYESLLPFA; listed as Homo sapiens) [compound 551]”, the “Peptide exchange” value is ““+++” (≥50 = +++)”.

As to “552 (GLLDLPFRVGV; listed as Homo sapiens) [compound 552]”, the “Peptide exchange” value is listed as ““++++” (≥75% = ++++)”.

For “553 (SLLNQDLHWSL; listed as Homo sapiens) [compound 553]”, the “Peptide exchange” value was ““++++” (≥75% = ++++)”.

With “554 (LLMPSSEDLLL; listed as Homo sapiens) [compound 554]”, the “Peptide exchange” value is ““+++” (≥50 = +++)”.

With “555 (YVLEGLKSV; listed as Homo sapiens) [compound 555]”, the “Peptide exchange” value is recorded as ““+++” (≥50 = +++)”.

Take “556 (FLTDLEDLTL; listed as Homo sapiens) [compound 556]”: the “Peptide exchange” value is listed as ““+++” (≥50 = +++)”.

For “557 (KLYDDMIRL; listed as Homo sapiens) [compound 557]”, the “Peptide exchange” value is ““+++” (≥50 = +++)”.

For the substance “558 (GLLENIPRV; listed as Homo sapiens) [compound 558]”, the “Peptide exchange” value is ““+++” (≥50 = +++)”.

As for “559 (VTVPPGPSL; listed as Homo sapiens) [compound 559]”, the “Peptide exchange” value is recorded as ““++” (≥20% = ++)”.

(Values after US10047131B2, “Peptides and combination of peptides for use in immunotherapy against ovarian cancer and other cancers” (immatics biotechnologies GmbH, priority 2015, dated 2018).)
